This note sets out measurements from PMC4137731.

The target in assay [1] is KpSSBnPaSSBc (K. pneumoniae subsp. pneumoniae MGH 78578 | P. aeruginosa PAO1) (UniProt A6TGW7). The assay is described as follows: SEC; purified protein (2 mg/mL) on Superdex 200 HR 10/30 in Buffer D (20 mM potassium phosphate, 1 mM EDTA, 100 mM NaCl, pH 7.0), 0.5 mL/min; calibrated with proteins of known molecular weight; oligomeric state from the native mass against the monomer mass.

The target in assay [2] is KpSSBnStSSBc (K. pneumoniae subsp. pneumoniae MGH 78578 | S. enterica serovar Typhimurium LT2) (UniProt A6TGW7). The assay is described as above.

In assay [1], “KpSSBnPaSSBc (from UniProt A6TGW7 1-91; P40947 91-165)” yielded a stoichiometry N of 4. Take “KpSSBnStSSBc (from UniProt A6TGW7 1-91; P0A2F6 92-176)”: the stoichiometry N in assay [2] is 4.

Usually stoichiometry N stands for the number of molecules, sites or subunits per partner or assembly.
